In one series the target is T1, TCAB1 (human (endogenous in HEK293T), UniProt Q9BUR4 1-548).
T1 construct: TCAB1, human, Cajal body localization factor of the telomerase H/ACA RNP; also called Cajal body localization factor; source: HEK293T cells transfected with TERT and hTR
Nature of the series: cryo-EM structure; telomerase-DNA-TPT complex assembled in HEK293T cells and purified as a whole, BS3 cross-linked; H/ACA RNP lobe by signal subtraction; 2.7 Å (semi-closed thumb loop) and 3.1 Å (open thumb loop) reconstructions. As to conditions: both partners purified.

Series [1] concerns the molecule itself. The series is described as above.

T1 sequence (Q9BUR4 whole entry): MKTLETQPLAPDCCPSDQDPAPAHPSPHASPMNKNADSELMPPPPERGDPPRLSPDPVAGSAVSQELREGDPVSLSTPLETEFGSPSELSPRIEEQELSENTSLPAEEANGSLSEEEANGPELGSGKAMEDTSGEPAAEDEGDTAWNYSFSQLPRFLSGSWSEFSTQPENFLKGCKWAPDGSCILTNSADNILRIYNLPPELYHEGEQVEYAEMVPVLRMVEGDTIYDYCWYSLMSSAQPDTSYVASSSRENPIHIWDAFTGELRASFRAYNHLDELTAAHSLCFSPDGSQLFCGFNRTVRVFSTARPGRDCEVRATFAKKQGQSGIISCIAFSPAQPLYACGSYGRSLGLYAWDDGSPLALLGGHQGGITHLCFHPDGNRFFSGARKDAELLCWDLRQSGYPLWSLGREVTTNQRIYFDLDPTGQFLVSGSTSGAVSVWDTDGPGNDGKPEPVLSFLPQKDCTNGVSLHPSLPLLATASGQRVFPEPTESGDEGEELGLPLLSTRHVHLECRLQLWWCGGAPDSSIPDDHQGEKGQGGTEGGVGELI

B1: NHP2 (natural protein, human (endogenous in HEK293T), UniProt Q9NX24 1-153, looked up)
chain: MTKIKADPDGPEAQAEACSGERTYQELLVNQNPIAQPLASRRLTRKLYKCIKKAVKQKQIRRGVKEVQKFVNKGEKGIMVLAGDTLPIEVYCHLPVMCEDRNLPYVYIPSKTDLGAAAGSKRPTCVIMVKPHEEYQEAYDECLEEVQSLPLPL
notes: NHP2, human, core H/ACA protein; two copies (5’ and 3’) stand in the telomerase H/ACA RNP; also called 3’ NHP2; source: HEK293T cells transfected with TERT and hTR
For B1, in the series with TCAB1, the binding result was “binds”.

B2: dyskerin (natural protein, human (endogenous in HEK293T), UniProt O60832 1-514, looked up)
chain: MADAEVIILPKKHKKKKERKSLPEEDVAEIQHAEEFLIKPESKVAKLDTSQWPLLLKNFDKLNVRTTHYTPLACGSNPLKREIGDYIRTGFINLDKPSNPSSHEVVAWIRRILRVEKTGHSGTLDPKVTGCLIVCIERATRLVKSQQSAGKEYVGIVRLHNAIEGGTQLSRALETLTGALFQRPPLIAAVKRQLRVRTIYESKMIEYDPERRLGIFWVSCEAGTYIRTLCVHLGLLLGVGGQMQELRRVRSGVMSEKDHMVTMHDVLDAQWLYDNHKDESYLRRVVYPLEKLLTSHKRLVMKDSAVNAICYGAKIMLPGVLRYEDGIEVNQEIVVITTKGEAICMAIALMTTAVISTCDHGIVAKIKRVIMERDTYPRKWGLGPKASQKKLMIKQGLLDKHGKPTDSTPATWKQEYVDYSESAKKEVVAEVVKAPQVVAEAAKTAKRKRESESESDETPPAAPQLIKKEKKKSKKDKKAKAGLESGAEPGDGDSDTTKKKKKKKKAKEVELVSE
notes: dyskerin, human, catalytic pseudouridine synthase subunit of H/ACA RNPs; domains NTE, PUA, TruB, CTE; two copies (5’ and 3’) stand in the telomerase H/ACA RNP; residues 1-22 (5’ copy) and 1-42 (3’ copy) are not visible in the map; also called 5’ dyskerin; 3’ dyskerin; source: endogenous, HEK293T cells transfected with TERT and hTR
Take B2: in series [1], the binding result is on record as “binds”.
